Results as given in the Immune Epitope Database (IEDB).

Tests used:
HLA-A*02:03 = experiment: IEDB peptide-MHC binding, purified MHC/competitive/radioactivity; filed as Kd, often an IC50 or EC50 that approximates it; ≥ and ≤ were set here for values at or beyond the usual limits of such assays
HLA-A*02:02 = experiment: as above
HLA-A*02:06 = experiment: as above
HLA-A*02:01 [1] = experiment: IEDB peptide-MHC binding, purified MHC/competitive/fluorescence; ≥ and ≤ were set here for values at or beyond the usual limits of such assays
HLA-B*53:01 = experiment: IEDB peptide-MHC binding, purified MHC/competitive/radioactivity; filed as Kd, often an IC50 or EC50 that approximates it; ≥ and ≤ were set here for values at or beyond the usual limits of such assays
HLA-B*07:02 = experiment: IEDB peptide-MHC binding, purified MHC/direct/fluorescence; filed as Kd, often an IC50 or EC50 that approximates it; ≥ and ≤ were set here for values at or beyond the usual limits of such assays
HLA-A*30:02 = experiment: IEDB peptide-MHC binding, purified MHC/competitive/radioactivity; filed as Kd, often an IC50 or EC50 that approximates it; ≥ and ≤ were set here for values at or beyond the usual limits of such assays
HLA-A*01:01 [2] = experiment: as above
HLA-A*26:01 = experiment: as above
HLA-A*02:01 [3] = experiment: IEDB peptide-MHC binding, purified MHC/direct/fluorescence; filed as Kd, often an IC50 or EC50 that approximates it; ≥ and ≤ were set here for values at or beyond the usual limits of such assays
HLA-B*58:01 = experiment: as above; settings: source organism: Human immunodeficiency virus 1
HLA-A*68:01 = experiment: IEDB peptide-MHC binding, purified MHC/competitive/radioactivity; filed as Kd, often an IC50 or EC50 that approximates it; ≥ and ≤ were set here for values at or beyond the usual limits of such assays; settings: source organism: Dengue virus 2 Jamaica/1409/1983
HLA-A*33:01 = experiment: as above; settings: source organism: Dengue virus 2 Jamaica/1409/1983
HLA-A*31:01 = experiment: as above; settings: source organism: Dengue virus 2 Jamaica/1409/1983
HLA-A*24:02 = experiment: as above
HLA-A*69:01 = experiment: IEDB peptide-MHC binding, purified MHC/direct/fluorescence; filed as Kd, often an IC50 or EC50 that approximates it; ≥ and ≤ were set here for values at or beyond the usual limits of such assays
HLA-A*11:01 = experiment: as above; settings: source organism: Yellow fever virus 17D
HLA-A*01:01 [4] = experiment: as above; settings: source organism: Homo sapiens
[5] = source organism: Vaccinia virus WR
[6] = source organism: Vaccinia virus
[7] = source organism: Zaire ebolavirus
[8] = source organism: Dengue virus 1 Brazil/97-11/1997
[9] = source organism: Dengue virus 3 Martinique/1243/1999
[10] = source organism: Dengue virus 2 Jamaica/1409/1983
[11] = source organism: Sudan ebolavirus
[12] = source organism: Mammarenavirus caliense
[13] = source organism: Dengue virus 4 Philippines/H241/1956
[14] = source organism: Bacillus anthracis
[15] = source organism: Mammarenavirus guanaritoense

NISFKSINKV
Kd (HLA-A*02:03; [5]): 1530 nM
Kd (HLA-A*02:02; [5]): ≥ 20300 nM
Kd (HLA-A*02:06; [5]): 11700 nM

NLERETGLSA
Kd (HLA-A*02:03; [5]): 1660 nM
Kd (HLA-A*02:02; [5]): 17600 nM
Kd (HLA-A*02:06; [5]): 15100 nM

NLSPETLVG
IC50 (HLA-A*02:01 [1]; [6]): ≥ 170000 nM

NLTYVQLES
IC50 (HLA-A*02:01 [1]; [7]): 11000 nM

NPAVLRKLCI
Kd (HLA-B*53:01; [8]): 5200 nM

NPQKENDQY
Kd (HLA-B*53:01; [9]): 2080 nM

NPTVDGITVI
Kd (HLA-B*53:01; [10]): 2510 nM

NPVPVGNIY
Kd (HLA-B*07:02; source organism: Human immunodeficiency virus type 2 (ISOLATE D205,7)): ≥ 40300 nM

NVISKIYTL
Kd (HLA-A*02:03; [5]): 96.7 nM
Kd (HLA-A*02:02; [5]): 147 nM
Kd (HLA-A*02:06; [5]): 1.75 nM

NVTGFMEEEI
Kd (HLA-A*02:03; [5]): 5140 nM
Kd (HLA-A*02:02; [5]): 10300 nM
Kd (HLA-A*02:06; [5]): 17700 nM

QIPSSSPTT
IC50 (HLA-A*02:01 [1]; [11]): 42800 nM

QLSKSEFNTY
Kd (HLA-A*30:02; [8]): 71.1 nM
Kd (HLA-A*01:01 [2]; [8]): 1390 nM

QTGINNVQSL
Kd (HLA-A*02:03; [5]): ≥ 24400 nM
Kd (HLA-A*02:02; [5]): ≥ 20200 nM
Kd (HLA-A*02:06; [5]): ≥ 54000 nM

RINLLVQYGA
Kd (HLA-A*02:03; [5]): 15300 nM
Kd (HLA-A*02:02; [5]): 10300 nM
Kd (HLA-A*02:06; [5]): 7650 nM

RNPQKENDQY
Kd (HLA-A*30:02; [9]): ≥ 69700 nM

RPEAAAGQL
Kd (HLA-B*07:02; source organism: Mycobacterium tuberculosis variant bovis BCG str. Pasteur 1173P2): 179 nM

RQVSVKLLI
Kd (HLA-A*02:03; [5]): 254 nM
Kd (HLA-A*02:02; [5]): 17900 nM
Kd (HLA-A*02:06; [5]): 0.135 nM

RTPQDNQLAY
Kd (HLA-A*30:02; [8]): 267 nM
Kd (HLA-A*01:01 [2]; [8]): 703 nM

SEFKSRFFIW
Kd (HLA-A*26:01; [12]): ≥ 69700 nM
Kd (HLA-A*30:02; [12]): 7480 nM
Kd (HLA-A*01:01 [2]; [12]): 2210 nM

SFTVVSNGA
IC50 (HLA-A*02:01 [1]; [7]): ≥ 372000 nM

SIYIAVANCV
Kd (HLA-A*02:03; [5]): 62.7 nM
Kd (HLA-A*02:02; [5]): 534 nM
Kd (HLA-A*02:06; [5]): 1000 nM

SLETVKMGA
Kd (HLA-A*02:03; [5]): 547 nM
Kd (HLA-A*02:02; [5]): 11200 nM
Kd (HLA-A*02:06; [5]): ≥ 23400 nM

SLIPDATHL
Kd (HLA-A*02:01 [3]; source organism: Lassa virus Josiah): 18.1 nM

SLVSKHWEL
Kd (HLA-A*02:03; [5]): 36 nM
Kd (HLA-A*02:02; [5]): 1.16 nM
Kd (HLA-A*02:06; [5]): 34.9 nM

SPSKRNQTF
Kd (HLA-B*07:02; source organism: Mammarenavirus amapariense): 66.8 nM

SRKTFDSEY
Kd (HLA-A*30:02; [10]): 3810 nM

STESHNQTF
Kd (HLA-A*01:01 [2]; [10]): 8210 nM

STFNMWREIL
Kd (HLA-A*02:03; [5]): 907 nM
Kd (HLA-A*02:02; [5]): 3120 nM
Kd (HLA-A*02:06; [5]): 3360 nM

STTENAAYQV
Kd (HLA-A*02:03; [5]): 4700 nM
Kd (HLA-A*02:02; [5]): 928 nM
Kd (HLA-A*02:06; [5]): 101 nM

TAVPWNASW
Kd (HLA-B*58:01): 13 nM

TLAGVNVGE
IC50 (HLA-A*02:01 [1]; [7]): ≥ 211000 nM

TLLGLILFVL
Kd (HLA-A*02:03; [5]): 796 nM
Kd (HLA-A*02:02; [5]): 169 nM
Kd (HLA-A*02:06; [5]): 672 nM

TQSRPIQNV
IC50 (HLA-A*02:01 [1]; [7]): 14600 nM

TTDISEMGA
Kd (HLA-A*01:01 [2]; [13]): 188 nM

TTQDEGAAI
IC50 (HLA-A*02:01 [1]; [7]): ≥ 220000 nM

TVMDIISRR
Kd (HLA-A*68:01): 3.87 nM
Kd (HLA-A*26:01; [10]): 2710 nM
Kd (HLA-A*33:01): 11.1 nM
Kd (HLA-A*31:01): 17.9 nM

TWHYDEDNPY
Kd (HLA-A*30:02; [8]): 3070 nM

TWPKSHTLW
Kd (HLA-A*24:02; [9]): 39.8 nM

TYGLNTFTN
Kd (HLA-A*24:02; [10]): 1590 nM

VAELVHFLL
Kd (HLA-A*24:02; source organism: Homo sapiens): 149 nM

VAGGLLLAAY
Kd (HLA-A*30:02; [13]): 78.7 nM

VAIDLDPVVY
Kd (HLA-A*30:02; [8]): 825 nM
Kd (HLA-A*01:01 [2]; [8]): ≥ 33400 nM

VILSLPRIA
IC50 (HLA-A*02:01 [1]; source organism: Variola virus): 1390 nM

VIRHVDGKIL
Kd (HLA-A*02:03; [5]): ≥ 33400 nM
Kd (HLA-A*02:02; [5]): ≥ 70000 nM
Kd (HLA-A*02:06; [5]): ≥ 69800 nM

VLNGAELSN
IC50 (HLA-A*02:01 [1]; [6]): ≥ 114000 nM

VLRGNRQGL
Kd (HLA-A*02:01 [3]; [14]): 4460 nM
Kd (HLA-A*69:01; [14]): ≥ 20000 nM

VLWDIPTPK
Kd (HLA-A*11:01): 4.4 nM

VTNSTLEVT
IC50 (HLA-A*02:01 [1]; [11]): ≥ 122000 nM

VYTQLCDHRL
Kd (HLA-A*24:02; [9]): 6.35 nM

WSAIFFTTSL
Kd (HLA-A*02:03; [15]): 6990 nM
Kd (HLA-A*02:02; [15]): 2000 nM
Kd (HLA-A*02:06; [15]): 1400 nM

YVDFREYEYD
Kd (HLA-A*01:01 [2]; source organism: Homo sapiens): 90 nM

YVDHYYRDY
Kd (HLA-A*69:01; source organism: Homo sapiens): 2000 nM
Kd (HLA-A*01:01 [4]): 92.3 nM
